Assay results as given in patent US11021533 (VANDERBILT UNIVERSITY, dated 2021).

Target: ZIKV strain H/PF/2013 (French Polynesia, 2013) virus (Zika virus, strain H/PF/2013)
Assay: cell-based or functional assay

Binder | FRNT50 (focus reduction neutralization test on Vero cells) [ng/mL]
ZIKV-116 (antibody, V domains shown) VH: EVKLVESGRGLVRPGGSLRLSCAASGFTFSNYAMSWVRQGPGMGLEWVSTITADSDSKYYVDSVKGRFTISRDNSKDTLFLHMTSLRAEDTAVYYCAKDRLSRGVGELYDSWGQGTLVTVSQ VL: DIQMTQSPSTLSASVGDRVTITCRASQSIDVWLAWYQQKPGKAPKLLMYKTSTLQTGVPSRFSGSGSGTEFTLTISSLQTDDFATYYCQKYDSYPWTFGPGTKVEIK | 16
ZIKV-117 (antibody, V domains shown) VH: QVQLVESGGGVVRPGGSLRLSCAASGFTFKNYGIHWVRQAPGKGPEWVAFVRYDGNNKYYADSVKGRFTISRDNAKNTLSLQMNSLRVEDTAVYFCARDPETFGGFDYWGQGTLVTVSS VL: ETVMTQSPATLSVSPGERGTLSCRASESVSSNLAWYQQKPGKAPRLLIYGASTRATGIPDRFSGSGSGTEFTLTISSLQSEDFAVYYCQQYYYSPRTFGQGTKVEVK | 5
ZIKV-216 (antibody, V domains shown) VH: EVQLVQSGAEGKKPGESLKISCKGSGYNFSNYWIGWVRQMPGKGLEWMGIIYPGDSDTRYSPSFQGQVTISADKSINTAYLQWRSLRASDSAMFYCARGVMITTPNPYDWFDAWGQGTLVTVSS VL: QSALTQPASVSGSPGQSITISCTGTGSDIGTYDYVSWYQQHPGKAPKLMIYGVTKRPSGVSHRFSGSKSVNTASLTISGLQAEDEADYFCSSYSTSSTFVVFGGGTKLTVL | 16
ZIKV-195 (antibody, V domains shown) VH: QVQVVESGGGVVQPGRSLRLSCAASGFTFSSSAMHWVRQAPGKGLEWVAVISYDGSNKYYGDSVKGRFTISRDNSKNTLYLQMHSLRAEDTAVYYCAKDRDAYNTVGYFAYYYGMDVWGQGTLVTVSS VL: QSVLTQPPSVSEAPRQRVTISCSGSSSNIGNNAVNWYQQLPGKAPKLLIYYDDLLPSGVSDRFSGSKSGTSASLAISGLQSEDEADYYCAAWDDSLTRYVFGTGTKVTVL | 346
